Assay results as given in article PMC2749821 (2009).

How the values were obtained:
BMPR1B = biological target: T1, BMPR1B (Mus musculus (Mouse), UniProt P36898); test: SPR 1:1 (ligand immobilised, monomeric ECD analyte)
T1 chain: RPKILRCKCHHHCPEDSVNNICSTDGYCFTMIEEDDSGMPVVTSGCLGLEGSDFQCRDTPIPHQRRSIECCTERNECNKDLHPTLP

ACVR2B = biological target: T2, ACVR2B (Mus musculus (Mouse), UniProt P27040); test: as above
T2 chain: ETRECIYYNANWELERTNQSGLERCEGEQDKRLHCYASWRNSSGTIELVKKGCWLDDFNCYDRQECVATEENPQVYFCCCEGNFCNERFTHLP

B1: ActivinA (protein)
chain 1: GLECDGKVNICCKKQFFVSFKDIGWNDWIIAPSGYHANYCEGECPSHIAGTSGSSLSFHSTVINHYRMRGHSPFANLKSCCVPTKLRPMSMLYYDDGQNIIKKDIQNMIVEECGCS
chain 2: GLECDGKVNICCKKQFFVSFKDIGWNDWIIAPSGYHANYCEGECPSHIAGTSGSSLSFHSTVINHYRMRGHSPFANLKSCCVPTKLRPMSMLYYDDGQNIIKKDIQNMIVEECGCS
- Kd (BMPR1B): > 64000 nM
- Kd (ACVR2B): 88 nM

B2: BMP7 (protein)
chain 1: DQRQACKKHELYVSFRDLGWQDWIIAPEGYAAYYCEGECAFPLNSYMNATNHAIVQTLVHFINPETVPKPCCAPTQLNAISVLYFDDSSNVILKKYRNMVVRACGCH
chain 2: DQRQACKKHELYVSFRDLGWQDWIIAPEGYAAYYCEGECAFPLNSYMNATNHAIVQTLVHFINPETVPKPCCAPTQLNAISVLYFDDSSNVILKKYRNMVVRACGCH
- Kd (BMPR1B): 750 nM
- Kd (ACVR2B): 2500 nM
